Results as given in patent US20170002361A1.

Target: Flag-tagged NS5B (hepatitis C virus)
Test: cell-based or functional assay

protein kinase C-related kinase 2 (PRK2) (from UniProt Q16513 1-984) (enzyme)
level of p-NS5B (32P-orthophosphate metabolic labeling, immunoprecipitation, autoradiography) after PRK2 silencing with siPRK2-1: 55%
